Results on 1 molecule are retold here after paper PMC13078783 (2026).

Test [1] addresses KLC1 TPR domain. Briefly: FP.
Test [2] deals with KLC2 TPR domain. Briefly: FP.
Chain of KLC2 TPR domain (chain, as listed by the source): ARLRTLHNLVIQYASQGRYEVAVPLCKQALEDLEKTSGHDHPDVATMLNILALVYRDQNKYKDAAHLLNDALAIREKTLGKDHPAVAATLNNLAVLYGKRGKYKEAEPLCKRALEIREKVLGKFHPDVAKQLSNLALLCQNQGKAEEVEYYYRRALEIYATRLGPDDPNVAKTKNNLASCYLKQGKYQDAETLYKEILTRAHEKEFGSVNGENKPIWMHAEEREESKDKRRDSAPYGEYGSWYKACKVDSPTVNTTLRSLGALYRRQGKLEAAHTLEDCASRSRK

Chain of KLC1 TPR domain (chain, as listed by the source): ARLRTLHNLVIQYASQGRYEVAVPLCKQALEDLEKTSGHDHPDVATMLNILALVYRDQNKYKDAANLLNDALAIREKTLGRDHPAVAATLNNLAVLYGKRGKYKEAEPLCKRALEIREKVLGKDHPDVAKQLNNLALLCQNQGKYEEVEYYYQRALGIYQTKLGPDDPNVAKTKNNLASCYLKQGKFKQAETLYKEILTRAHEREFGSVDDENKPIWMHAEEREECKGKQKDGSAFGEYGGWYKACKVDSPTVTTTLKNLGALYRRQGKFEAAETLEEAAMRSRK

Take {TAMRA}-STNLEWDDSAI-NH2 [SKIP W-acidic motif peptide]: the values for the Kd in test [1] and in test [2] were 830 nM and 750 nM, respectively.

As a reminder, the Kd is the concentration at which binding is half-saturated. A high value points to lower affinity.
